Data as given in article PMC12014896 (2025).

B1: COVIC-300 (antibody, V domains shown)
VH: EVQLVESGGGLIQPGGSLRLSCAASGFIVSSNYMSWVRQAPGKGLEWVSVIYSGGITYFADSVKGRFTISRDISKNTLYLQMNSLRAEDTAVYYCARDRRLPHYYYGLDVWGQGTTVTVSS
VL: QSVLTQPASVSGSPGQSITISCTGTSSDVGGYNYVSWYQQHPGKAPTLIIYEVTSRPSGVSNRFSGSKSGNTASLTISGLQAEDEADYYCSSYTTSNTLGGVFGTGTKVTVL
B2: COVIC-304 (antibody, V domains shown)
VH: QVQLQQWGAGLLKPSETLSLKCAVYGGSFSGYYWGWIRQSTGKGLEWIGEINRSGSTNYNPSLKSRVTISVDTSKNQFSLKLSSVTAADTAVYYCARGGARYYYGSGSYRSTPRPYYFDYWGQGTLVTVSS
VL: SYELTQPPSVSVAPGETARITCGGDNIGRRHVHWYQQKPGQAPVLVIYDDSDRPSGIPDRFSGSNSGNTATLTIGRVEAGDEADYYCQVWGSSNDPHVFGTGTKLTVLG
B3: COVIC-94 (antibody, V domains shown)
VH: EVQLVESGGGLVQPGGSLRLSCAASGFTFSPSWMGWFRQAPGKEREFVATINEYGGRNYADSVKGRFTISADNSKNTAYLQMNSLKPEDTAVYYCARVDRDFDYWGQGTLVTVSS
B4: COVIC-298 (antibody, V domains shown)
VH: EVQLVQSGAEVKKPGESLKISCQGSGFSFSNYWIGWVRQMPGKGLEWMGIIYPDDSDTRYSPSFQGQVTISADKSISTAFLQWSSLKASDTAMYYCATRTGWTNDAFDIWGQGTMVTVSS
VL: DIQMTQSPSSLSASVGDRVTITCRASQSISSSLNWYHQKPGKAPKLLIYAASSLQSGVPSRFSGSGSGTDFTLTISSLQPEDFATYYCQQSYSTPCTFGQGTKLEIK
B5: COVIC-79 (antibody, V domains shown)
VH: EVQLVESGGGLIQPGGSLRLSCAASGFIVSRNYMIWVRQAPGKGLEWVSVIYSGGSTFYADSVKGRFTISRDNSKNTLYLQMNSLRAEDTAVYYCARDLEVAGAIDYWGQGTLVTVSS
VL: EIVLTQSPGTLSLSPGERATLSCRASQSISSSYLAWYQQKPGQAPRLLIYGATSRATGTPDRFSGSGSGTDFTLTINRLEPEDFAVYYCQQYGSSPGYTFGQGTKLEIK
B6: COVIC-338 (antibody, V domains shown)
VH: EVQLVESGGGLVQPGRSLRLSCAASGLTFEDYAMHWVRQPPGKGLEWVSGVSWNSGTIGYADSVKGRFTISRDNAKNSLYLHMRSLGAEDTAMYYCAKDMGGRFSFFSLENDAFDIWGQGTMVIVSS
VL: SYELTQPPSVSVSPGQTARITCSGDALPKQSTYWYQQKPGQAPVLVIYKDIERPSGIPERFSGSSSGTTVTLTISGVQAEDEADYYCQSADSSDTYVFGTGTKVTVL
B7: COVIC-148 (antibody, V domains shown)
VH: QVQLVQSGAEVKKPGASVKVSCKASGYTFTSYDINWVRQATGQGLEWMGWMNPNSGNTGYAQKFQGRVTMTRDTSINTAYMELSSLRSEDTAVYFCARGGRYCSDVTCYSGEPFDYWGQGTLVTVSS
VL: EIMLTQSPDFQSVTPKEKVTITCRASQSIGSSLHWYQQKPDQSPKLLIKFASQSISGVPSRFSGSGSGTDFTLTINSLEAEDAAAYYCHQSSSLPHTFGPGTKVEIKR
B8: COVIC-259 (antibody, V domains shown)
VH: EVQLVESGGGVVQPGRSLRLSCAASGFTFSSYAMHWVRQAPGKGLEWVAVLSYDGSNKYNADSVKGRFTISRDNSKNTLYLQMNSLRVEDTAMYYCARDGVSVTMVRGVIGPLCDYWGQGTLVTVSS
VL: not shown
B9: COVIC-267 (antibody, V domains shown)
VH: EVQLVESGGGLVQPGGSLRLSCTVSGFSLSSYAMSWVRQAPGKGLEWIGIIGNSGNTYYASWAKGRFTISRDNSKNTLYLQMNSLRAEDTAVYYCARNWDPDSYEYTYATNSFDPWGQGTLVTVSS
VL: DIQMTQSPSSLSASVGDRVTITCQASESISSYLAWYQQKPGKAPKLLIYRASTLESGVPSRFSGSGSGTDFTLTISSLQPEDFATYYCQCTYGSSSSGSYGNAFGGGTKVEIK
B10: COVIC-335 (antibody, V domains shown)
VH: QVQLVESGGGVVQPGRSLRLSCAASGFTFSRYGMHWVRQAPGKGLEWVALISSGGSNKYYADSVKGRFTISRDNSKNTLYLEMNSLRAEDTAVYYCAKDAIYDYIWGAYRENWFDPWGQGTLVTVSS
VL: DIQMTQSPSSLSASVGDRVTITCRASQSISNYLNWYQQKPGKAPNLLIYAASSLQSGVPSRFSGSGSGTDFTLTISSLQPEDFATYYCQQTSSPPLTFGQGTKVEIK
B11: COVIC-97 (antibody, V domains shown)
VH: EVQLVESGPEVKKPGTSVKVPCKASGFTFTSSAVQWVRQARGQRLEWIGWIVVGSGNTNYAQKFQERVTITRDMSTSTAYMELSSLRSEDTAVYYCAAPSCSGGRCYDGFDIWGQGTMVTVSS
VL: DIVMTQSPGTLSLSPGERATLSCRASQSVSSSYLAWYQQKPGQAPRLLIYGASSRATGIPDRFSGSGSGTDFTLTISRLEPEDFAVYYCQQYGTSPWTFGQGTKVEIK
B12: COVIC-96 (antibody, V domains shown)
VH: QVQLVQSGAEVKKPGSSVKVSCKASGGTFSTSTISWVRQAPGQGLEWMGGIIPLFGSPNYAQKFQGRVTITADESTSTAYMELSSLRFEDTAVYYCARLGQWDLLPRWGQGTLVTVSS
VL: EIVLTQSPGTLSLSPGERATLSCRASQSVSSSYLAWYQQKPGQAPRLLIYGASSRASGTPDRFSGRGSGTDFTLTISRLEPEDFAVYYCQQYGSSYTFGQGTKLEIK
B13: COVIC-361 (antibody, V domains shown)
VH: EVQLVESGGGLVQPGGSLRLSCKASGISVAPHAVTWVRQAPGKGLEWIGVIASNADTYYASWAKGRFTISRDNSKNTLYLQMNSLRAEDTAVYYCARHPGSAGYGYTYYYAMDPWGQGTLVTVSS
VL: DIQMTQSPSSLSASVGDRVTITCQASQDVKYAINWYQQKPGKAPKLLIYGTSSRGEGVPSRFSGSGSGTDYTLTISSLQPEDFATYYCQQGYVVSIFFGGGTKVEIK
B14: COVIC-56 (antibody)
chain 1: not shown
chain 2: QVQLQESGGGLVQAGGSLRLSCAASGRTFSEYAMGWFRQAPGKEREFVATISWSGGSTYYTDSVKGRFTISRDNAKNTVYLQMNSLKPDDTAVYYCAAAGLGTVVSEWDYDYDYWGQGTQVTVSSGGGGSGGGGSKRTVAAPSVFIFPPSDEQLKSGTASVVCLLNNFYPREAKVQWKVDNALQSGNSQESVTEQDSKDSTYSLSSTLTLSKADYEKHKVYACEVTHQGLSSPVTKSFNRGEC
B15: COVIC-150 (antibody, V domains shown)
VH: EVQLVESGGGLIQPGGSLRLSCAASGVTVSSNYMSWVRQAPGKGLEWVSVIYSGGSTFYADSVKGRFTISRDNSKNTLYLQMNSLRAEDTAVYYCARDLSYYGMDVWGQGTTVTVSS
VL: DIQLTQSPSFLSASVGDRVTITCWASQGISSYLAWYQQKPGKAPKLLIYAASTLQSGVPSKFSGSGSGTEFTLTISSLQPEDFATYYCQQLNSYPSSFGQGTKLEIKR
B16: COVIC-183 (antibody, V domains shown)
VH: EVHLVESGGGLVQPGGSLRLSCAASGFTFSDHYMDWVRQAPGKGLEWVGRTRNKANSYTTEYAASVKGRFTISRDDAKNSLYLQMNSLKTEDTAVYYCARVHRWAYCINGVCFGAYSDYWGQGTLVTVSS
VL: not shown
B17: COVIC-301 (antibody, V domains shown)
VH: EVQLVESGGGLIQPGGSLRLSCAASGVTVSSNYMSWVRQAPGKGLEWVSIIYPGGSRFYADSVKGRFTISRDNSKNTLYLQMNSLRAEDTAVYYCAREVRGWLDPWGQGTLVTVSS
VL: DVVMTQSPSFLSASVGDRVTITCRASQGISNYLAWYQQKPGKAPKLLIYASSTLQSGVPSRFSGSGSGTEFTLTISSLQPEDFATYYCQHLNSYPHFGQGTRLEIKR

Each binder was assayed against SARS-CoV-2 spike RBD (Wuhan-Hu-1) (Severe acute respiratory syndrome …, UniProt P0DTC2) (assay: SPR).

| Binder | Kd [nM] |
| --- | --- |
| B1 | 1.13 |
| B2 | 197 |
| B3 | 5.62 |
| B4 | 0.629 |
| B5 | 0.745 |
| B6 | 0.00664 |
| B7 | 1.85 |
| B8 | 2.1 |
| B9 | 1.95 |
| B10 | 9 |
| B11 | 4.96 |
| B12 | 92.2 |
| B13 | 0.0241 |
| B14 | 94.2 |
| B15 | 141 |
| B16 | 6.97 |
| B17 | 1.55 |
